Assay results: the supplement of paper PMC11780869

Tested on: Bacillus subtilis
Experiment: cleaved RNA product abundance (RNA/gDNA barcode ratio) relative to median wild-type variant (ratio to wild type); higher = more accumulation of the downstream cleavage product
Settings: cleavage site: cggR-gapA (positions -7 to +36 mutated)
Method in brief: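 Reporter mRNAs based on truncated aprE or tetM carried barcoded, mutagenized RNase Y cleavage-site windows built from oligos with a 9% error rate and were integrated into the B. subtilis chromosome. Cultures grew in LB at 37°C from OD600 0.0003 to 0.3. Cleaved RNA was gel-selected, reverse transcribed and barcode-sequenced together with genomic DNA barcodes, and UMIs were collapsed. Cleaved product abundance is the per-construct ratio of RNA to gDNA barcodes, scaled to the median of constructs carrying the unmutated site.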

[1] = experiment (reporter, strain, medium): exp 4a: truncated aprE reporter, strain BJT201 with 2% xylose (RNase J1 expressed)
[2] = experiment (reporter, strain, medium): exp 2b: truncated aprE reporter, strain BJT200

Sequence | cleaved RNA product abundance [1] | cleaved RNA product abundance [2]
ACAGACGAAGGAGCCGCATAGAAGTTATTAAGGGATGAATAATCCCTCAATATAAATTTCTCTCACTTATTTAAA | 0.644 | 
ACAGACGAAGGAGCCGCATAGAAGTTATTAAGGGATGAATAATCCCTCAATATTAATATCTCTCACTTATTTAAA | 0.121 | 
ACAGACGAAGGAGCCGCATAGAAGTTATTAAGGGATGAATAATCCCTCAATTTAAATATCTCTCACTTATTTAAA |  | 0.195
ACAGACGAAGGAGCCGCATAGAAGTTATTAAGGGATGAATAATCCCTCACTATAAATATCTCTCACTTATTTAAA | 0.24 | 
ACAGACGAAGGAGCCGCATAGAAGTTATTAAGGGATGAATAATCCCTCATTATAAATATCTCTCACTTATTTAAA | 0.41 | 
ACAGACGAAGGAGCCGCATAGAAGTTATTAAGGGATGAATAATCCCTCCATATAAATATCTCTCACTTATTTAAA | 0.24 | 
ACAGACGAAGGAGCCGCATAGAAGTTATTAAGGGATGAATAATCCCTGAATATAAATATCTCTCACTTATTTAAA | 0.679 | 
ACAGACGAAGGAGCCGCATAGAAGTTATTAAGGGATGAATAATCCCTTAATATAAATATCTCTCACTTATTTAAA | 0.448 | 1.12
ACAGACGAAGGAGCCGCATAGAAGTTATTAAGGGATGAATAATCCGTCAATATAAATATCTCTCACTTATTTAAA | 0.235 | 
ACAGACGAAGGAGCCGCATAGAAGTTATTAAGGGATGAATAATCCTTCAATATAAATATCTCTCACTTATTTAAA | 0.54 | 0.516
ACAGACGAAGGAGCCGCATAGAAGTTATTAAGGGATGAATAATCGCTCAATATAAATATCTCTCACTTATTTAAA | 0.141 | 
ACAGACGAAGGAGCCGCATAGAAGTTATTAAGGGATGAATAATCTCTCAATATAAATATCTCTCACTTATTTAAA |  | 1.08
ACAGACGAAGGAGCCGCATAGAAGTTATTAAGGGATGAATAATGCCTCAATATAAATATCTCTCACTTATTTAAA | 0.141 | 
ACAGACGAAGGAGCCGCATAGAAGTTATTAAGGGATGAATACTCCCTCAATATAAATATCTCTCACTTATTTAAA | 0.618 | 
ACAGACGAAGGAGCCGCATAGAAGTTATTAAGGGATGACTAATCCCTCAATATAAATATCTCTCACTTATTTAAA | 0.679 | 
ACAGACGAAGGAGCCGCATAGAAGTTATTAAGGGATGCATAATCCCTCAATATAAATATCTCTCACTTATTTAAA | 0.933 | 
ACAGACGAAGGAGCCGCATAGAAGTTATTAAGGGATTAATAATCCCTCAATATAAATATCTCTCACTTATTTAAA | 1.38 | 1
ACAGACGAAGGAGCCGCATAGAAGTTATTAAGGGTTGAATAATCCCTCAATATAAATATCTCTCACTTATTTAAA | 0.41 | 0.498
ACAGACGAAGGAGCCGCATAGAAGTTATTAAGGTATGAATAATCCCTCAATATAAATATCTCTCACTTATTTAAA | 0.159 | 
ACAGACGAAGGAGCCGCATAGAAGTTATTAAGTGATGAATAATCCCTCAATATAAATATCTCTCACTTATTTAAA | 0.0818 | 0.121
ACAGACGAAGGAGCCGCATAGAAGTTATTAATGGATGAATAATCCCTCAATATAAATATCTCTCACTTATTTAAA | 0.214 | 0.142
ACAGACGAAGGAGCCGCATAGAAGTTATTCAGGGATGAATAATCCCTCAATATAAATATCTCTCACTTATTTAAA | 0.947 | 
ACAGACGAAGGAGCCGCATAGAAGTTATTTAGGGATGAATAATCCCTCAATATAAATATCTCTCACTTATTTAAA | 0.962 | 
ACAGACGAAGGAGCCGCATAGAAGTTTTTAAGGGATGAATAATCCCTCAATATAAATATCTCTCACTTATTTAAA | 0.561 | 
ACAGACGAAGGAGCCGCATAGAATTTATTAAGGGATGAATAATCCCTCAATATAAATATCTCTCACTTATTTAAA | 0.514 | 0.76
ACAGACGAAGGAGCCGCATAGATGTTATTAAGGGATGAATAATCCCTCAATATAAATATCTCTCACTTATTTAAA | 1.38 | 
ACAGACGAAGGAGCCGCATATAAGTTATTAATGGATGAATAATCCCTCAATATAAATATCTCTCACTTATTTAAA | 0.131 | 
ACAGACGAAGGAGCCGCCAAGAAATTATTAAGGGATGAATAATCCCTCAATATAAATATCTCTCACTTATTTAAA | 0.549 | 
ACAGACGAAGGAGCCGCCAAGAAGTAATTAAGGGATGAATAATCCCTCAATATAAATATCTCTCACTTATTTAAA | 0.375 | 
